The source of these data is the supplement of paper PMC10567573.

First the molecules themselves.
B1: ZNF263 (parent)
chain: KPYKCTLCGENFSHRSNLIRHQRI
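Further: lentivirally expressed fusions sorted by FACS into six bins by GFP to DsRed ratio, PSI derived from sequencing read proportions per bin multiplied by bin number.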

This series covers variants of B1. The series can be described thus: protein stability index of a GFP-peptide fusion (GPS, HEK-293T) (PSI 1-6); higher = more stable. As to conditions: c terminus: a fixed tail appended.
With KPYKCTLCGEEFSHRSNLIRHQRI [N11E], the protein stability index is 3.23.

As for KPYKCTLCGEDFSHRSNLIRHQRI [N11D], the protein stability index worked out at 2.23.

With KPYKCTLCGEGFSHRSNLIRHQRI [N11G], the protein stability index was determined as 2.52.

Consider KPYKCTLCGEAFSHRSNLIRHQRI [N11A], for which the protein stability index stood at 2.72.

As to KPYKCTLCGESFSHRSNLIRHQRI [N11S], the protein stability index was 2.8.

On to KPYKCTLCGECFSHRSNLIRHQRI [N11C], for which the protein stability index worked out at 3.11.

As to KPYKCTLCGEMFSHRSNLIRHQRI [N11M], the protein stability index came out at 3.49.

In the case of KPYKCTLCGEYFSHRSNLIRHQRI [N11Y], the protein stability index worked out at 2.8.

Consider KPYKCTLCGEKFSHRSNLIRHQRI [N11K], for which the protein stability index amounted to 2.98.

Turning to KPYKCTLCGEFFSHRSNLIRHQRI [N11F], the protein stability index is 2.61.

As for KPYKCTLCGERFSHRSNLIRHQRI [N11R], the protein stability index was 3.03.

As to KPYKCTLCGEIFSHRSNLIRHQRI [N11I], the protein stability index was 3.18.

On to KAYKCTLCGENFSHRSNLIRHQRI [P2A], for which the protein stability index is 2.7.

On to KQYKCTLCGENFSHRSNLIRHQRI [P2Q], for which the protein stability index came out at 2.09.

As to KMYKCTLCGENFSHRSNLIRHQRI [P2M], the protein stability index came out at 2.05.

For KHYKCTLCGENFSHRSNLIRHQRI [P2H], the protein stability index stood at 2.49.

Consider KSYKCTLCGENFSHRSNLIRHQRI [P2S], for which the protein stability index is 2.59.

As to KYYKCTLCGENFSHRSNLIRHQRI [P2Y], the protein stability index was found to be 2.14.

As to KRYKCTLCGENFSHRSNLIRHQRI [P2R], the protein stability index was found to be 3.12.

For the variant KVYKCTLCGENFSHRSNLIRHQRI [P2V], the protein stability index is 2.98.

Turning to KCYKCTLCGENFSHRSNLIRHQRI [P2C], the protein stability index amounted to 2.02.

For the variant KPWKCTLCGENFSHRSNLIRHQRI [Y3W], the protein stability index was found to be 2.42.

Consider KPAKCTLCGENFSHRSNLIRHQRI [Y3A], for which the protein stability index is 1.9.

As for KPGKCTLCGENFSHRSNLIRHQRI [Y3G], the protein stability index was found to be 1.84.

As for KPSKCTLCGENFSHRSNLIRHQRI [Y3S], the protein stability index was found to be 2.11.

Turning to KPFKCTLCGENFSHRSNLIRHQRI [Y3F], the protein stability index turned out to be 2.23.

For the variant KPNKCTLCGENFSHRSNLIRHQRI [Y3N], the protein stability index stood at 2.47.

With KPEKCTLCGENFSHRSNLIRHQRI [Y3E], the protein stability index amounted to 1.78.

As for KPVKCTLCGENFSHRSNLIRHQRI [Y3V], the protein stability index came to 2.28.

As for KPHKCTLCGENFSHRSNLIRHQRI [Y3H], the protein stability index was 1.34.

KPKKCTLCGENFSHRSNLIRHQRI [Y3K]: the protein stability index is 3.17.

For the variant KPTKCTLCGENFSHRSNLIRHQRI [Y3T], the protein stability index was found to be 2.4.

For the variant KPYKCTLCGENFSHQSNLIRHQRI [R15Q], the protein stability index worked out at 2.43.

For the variant KPYKCTLCGENFSHNSNLIRHQRI [R15N], the protein stability index stood at 2.1.

Take KPYKCTLCGENFSHFSNLIRHQRI [R15F]: the protein stability index was 2.96.

Turning to KPYKCTLCGENFSHISNLIRHQRI [R15I], the protein stability index was 2.73.

Turning to KPYKCTLCGENFSHASNLIRHQRI [R15A], the protein stability index was 2.87.

Take KPYKCTLCGENFSHYSNLIRHQRI [R15Y]: the protein stability index was 2.45.

On to KPYKCTLCGENFSHPSNLIRHQRI [R15P], for which the protein stability index was 2.52.

On to KPYKCTLCGENFSIRSNLIRHQRI [H14I], for which the protein stability index came out at 2.07.

For the variant KPYKCTLCGENFSRRSNLIRHQRI [H14R], the protein stability index amounted to 2.41.

On to KPYKCTLCGENFSQRSNLIRHQRI [H14Q], for which the protein stability index was determined as 1.9.

With KPYKCTLCGENFSSRSNLIRHQRI [H14S], the protein stability index was 3.56.

Take KPYKCTLCGENFSDRSNLIRHQRI [H14D]: the protein stability index is 2.68.

Regarding KPYKATLCGENFSHRSNLIRHQRI [C5A], the protein stability index came out at 2.52.

With KPYKVTLCGENFSHRSNLIRHQRI [C5V], the protein stability index came to 2.06.

With KPYKTTLCGENFSHRSNLIRHQRI [C5T], the protein stability index came to 2.09.

In the case of KPYKKTLCGENFSHRSNLIRHQRI [C5K], the protein stability index was found to be 2.44.

As to KPYKRTLCGENFSHRSNLIRHQRI [C5R], the protein stability index was determined as 1.86.

In the case of KPYKDTLCGENFSHRSNLIRHQRI [C5D], the protein stability index is 2.69.

Regarding KPYKPTLCGENFSHRSNLIRHQRI [C5P], the protein stability index was found to be 2.44.

As to KPYKCTLCGENFSHRSSLIRHQRI [N17S], the protein stability index is 2.99.

With KPYKCTLCGENFSHRSELIRHQRI [N17E], the protein stability index worked out at 3.31.

With KPYKCTLCGENFSHRSFLIRHQRI [N17F], the protein stability index worked out at 2.08.

On to KPYKCTLCGENFSHRSKLIRHQRI [N17K], for which the protein stability index worked out at 3.28.

For the variant KPYKCTLCGENFSHRSALIRHQRI [N17A], the protein stability index turned out to be 3.59.

For the variant KPYKCTLCGENFSHRSYLIRHQRI [N17Y], the protein stability index turned out to be 3.12.

As for KPYKCTLCGENFSHRSNLIRFQRI [H21F], the protein stability index came out at 2.34.

As for KPYKCTLCGENFSHRSNLIRMQRI [H21M], the protein stability index was 2.72.

Consider KPYKCTLCGENFSHRSNLIRIQRI [H21I], for which the protein stability index worked out at 1.58.

As to KPYKCTLCGENFSHRSNLIRTQRI [H21T], the protein stability index turned out to be 2.22.

Turning to KPYKCTLCGENFSHRSNLIRKQRI [H21K], the protein stability index stood at 2.04.

Regarding KPYKCTLCGENFSHRSNLIRPQRI [H21P], the protein stability index was found to be 1.69.

Consider KPYKCTLCGENFSHRSNLIRLQRI [H21L], for which the protein stability index came to 1.89.

Turning to SPYKCTLCGENFSHRSNLIRHQRI [K1S], the protein stability index came out at 2.81.

Turning to GPYKCTLCGENFSHRSNLIRHQRI [K1G], the protein stability index came out at 2.27.

IPYKCTLCGENFSHRSNLIRHQRI [K1I]: the protein stability index was determined as 2.16.

For QPYKCTLCGENFSHRSNLIRHQRI [K1Q], the protein stability index came to 2.38.

TPYKCTLCGENFSHRSNLIRHQRI [K1T]: the protein stability index amounted to 2.08.

NPYKCTLCGENFSHRSNLIRHQRI [K1N]: the protein stability index amounted to 2.12.

Consider HPYKCTLCGENFSHRSNLIRHQRI [K1H], for which the protein stability index stood at 2.47.

KPYKCTLCGENFSHRSNLIRHCRI [Q22C]: the protein stability index turned out to be 2.44.

For the variant KPYKCTLCGENFSHRSNLIRHLRI [Q22L], the protein stability index was 2.35.

In the case of KPYKCTLCGENFSHRSNLIRHSRI [Q22S], the protein stability index was determined as 2.54.

As for KPYKCTLCGENFSHRSNLIRHGRI [Q22G], the protein stability index came to 1.86.

For the variant KPYKCTLCGENFSHRSNLIRHKRI [Q22K], the protein stability index is 2.14.

On to KPYKCTLCGENFSHRSNLIRHTRI [Q22T], for which the protein stability index stood at 2.54.

KPYKCTLCGENFSHRSNLIRHMRI [Q22M]: the protein stability index worked out at 3.43.

Turning to KPYKCTLCGENFSHRSNLIRHWRI [Q22W], the protein stability index is 2.65.

On to KPYACTLCGENFSHRSNLIRHQRI [K4A], for which the protein stability index is 2.32.

With KPYHCTLCGENFSHRSNLIRHQRI [K4H], the protein stability index is 2.95.

Regarding KPYVCTLCGENFSHRSNLIRHQRI [K4V], the protein stability index came out at 2.87.

As for KPYFCTLCGENFSHRSNLIRHQRI [K4F], the protein stability index was found to be 2.01.

As to KPYCCTLCGENFSHRSNLIRHQRI [K4C], the protein stability index worked out at 1.7.

With KPYLCTLCGENFSHRSNLIRHQRI [K4L], the protein stability index was determined as 1.84.

Consider KPYDCTLCGENFSHRSNLIRHQRI [K4D], for which the protein stability index worked out at 1.75.

On to KPYPCTLCGENFSHRSNLIRHQRI [K4P], for which the protein stability index worked out at 1.96.

As to KPYKCTLCGENFSHRINLIRHQRI [S16I], the protein stability index came out at 2.41.

Take KPYKCTLCGENFSHRGNLIRHQRI [S16G]: the protein stability index is 1.94.

KPYKCTLCGENFSHRPNLIRHQRI [S16P]: the protein stability index is 1.77.

Regarding KPYKCTLCGENFSHRWNLIRHQRI [S16W], the protein stability index came out at 2.43.

As to KPYKCTLCEENFSHRSNLIRHQRI [G9E], the protein stability index was found to be 2.29.

Take KPYKCTLCTENFSHRSNLIRHQRI [G9T]: the protein stability index came to 1.39.

KPYKCTLCDENFSHRSNLIRHQRI [G9D]: the protein stability index worked out at 2.01.
